Experimental data as given in US20030185836A1 (published 2003).

B1: S30 (minor sporozoite protein, proteolytic degradation product of S45) (other)
chain: TGEDAEGSQDSSGTEASGSQGSEEEGSEDDGQTSAASQPTTPAQSEGATTETIEATPKEECGTSFVMWFGEGTPAATLKCGAYTIVYAPIKDQTDPAPRYISGEVTSVTFEKSDNTVKIKVNGQDFSTLSANSSSPTENGGSAGQASSR
B2: S45 glycoprotein (45 kDa sporozoite surface protein of Cryptosporidium parvum) (other)
chain: DVPVEGSSSSSSSSSSSSSSSSSSSSSTSTVAPANKARTGEDAEGSQDSSGTEASGSQGSEEEGSEDDGQTSAASQPTTPAQSEGATTETIEATPKEECGTSFVMWFGEGTPAATLKCGAYTIVYAPIKDQTDPAPRYISGEVTSVTFEKSDNTVKIKVNGQDFSTLSANSSSPTENGGSAGQASSR
modifications: long stretch of serine residues after DVPVEG glycosylated with single residues of alpha N-acetyl galactosamine (first serine only partially); residues 180, 186 and 188 (S60 numbering) thought to be modified lysines
notes: Native protein from sporozoites/oocysts; also called 45 kDa protein; 45 kDa band
B3: S15 glycoprotein (15 kDa sporozoite surface protein of Cryptosporidium parvum) (other)
chain: SEETSEAAATVDLFAFTLDGGKRIEVAVPNVEDASKRDKYSLVADDKPFYTGANSGTTNGVYRLNENGDLVDKDNTVLLKDAG
modifications: glycosylated (labelled by H. pomatia lectin); glycosyl phosphatidyl inositol anchor predicted at the C-terminal glycine (residue 305 of S60)
notes: Native protein from sporozoites/oocysts, on blots after SDS-PAGE; also called 15 kDa protein band; 15 kDa protein

How the values were obtained:
[1] = molecular target: T1, Canavalia ensiformis lectin (Con A) (Canavalia ensiformis, UniProt P02866 30-281, limits assumed, biotin-conjugated); experiment: lectin Western blot of Triton X-114 fractionated sporozoite proteins
Protocol: Excysted oocysts or purified sporozoites were resuspended to 1×10⁹ cells/ml in ice-cold TBS (10 mM Tris, pH 8.0, 140 mM NaCl) containing a protease inhibitor mixture of 50 μM leupeptin (Sigma),.10 μM E-64 (Sigma), 1 mM phenylmethylsulfonylfluoride (Sigma). […] Lysates were then centrifuged (100,000×g for 1 h at 4° C.) and the supernatant warmed for 3 minutes to 37° C. to induce phase separation. The water phase and the membrane protein enriched detergent phase were separated by centrifugation and each phase reextracted once. The phases were adjusted to the original volume and proteins precipitated by adding 1/10 volume of ice cold 100% (w/v) trichloroacetic acid. After 30 minutes precipitates were pelleted by centrifugation and washed twice in 70% (v/v) ice-cold ethanol and once with acetone. Pellets were then air dried and redissolved in 1-D or 2-D sample buffer for electrophoretic analysis.
For lectin analysis, membranes blocked with 1% (w/v) BSA in PBS were incubated for 1 h with biotin-conjugated lectins (Sigma) in BSA/PBS and a further 3 h with 1:10,000 alkaline-phosphatase-conjugated ExtrAvidin in PBS. […] Membranes were developed in 1 M diethanolamine, pH 9.8, containing 1 mM MgCl₂, 0.5 mM 5-bromo-4-chloro-3-indolyl phosphate and 0.5 mM nitroblue tetrazolium.

[2] = molecular target: T1, Canavalia ensiformis lectin (Con A); experiment: lectin blot after SDS-PAGE of sporozoite surface proteins
[3] = molecular target: B3; experiment: co-fractionation: Triton X-114 phase separation, isoelectric focusing

| Binder | binding result [1] | binding result [2] | binding result [3] |
| --- | --- | --- | --- |
| B1 | no binding |  |  |
| B2 |  | no binding | binds |
| B3 |  | no binding |  |
